Measurements as given in patent US6777540 (dated 2004).

T1: Fas ligand peptide KMMSYCTTGQMWARS (228-242 positions) (human)
T1 construct: Synthetic 15-mer immobilized on a PepSet pin
T1 peptide: KMMSYCTTGQMWARS

T2: Fas ligand peptide VMMEGKMMSYCTTGQ (223-237 positions) (human)
T2 construct: Synthetic 15-mer immobilized on a PepSet pin
T2 peptide: VMMEGKMMSYCTTGQ

T3: Fas ligand peptide YPQDLVMMEGKMMSY (218-232 positions) (human)
T3 construct: Synthetic 15-mer immobilized on a PepSet pin
T3 peptide: YPQDLVMMEGKMMSY

T4: soluble Fas ligand molecule (human Fas ligand released into the supernatant of COS cells transfected with … (human, UniProt P48023 130-281, limits assumed))
T4 sequence (looked up): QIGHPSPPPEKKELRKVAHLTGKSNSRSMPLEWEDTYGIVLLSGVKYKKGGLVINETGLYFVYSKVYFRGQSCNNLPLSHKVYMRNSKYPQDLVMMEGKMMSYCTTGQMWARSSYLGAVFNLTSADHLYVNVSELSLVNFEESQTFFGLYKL


Columns and labels:
[1] = molecular target: T1, Fas ligand peptide KMMSYCTTGQMWARS …; test: PepSet pin ELISA, hybridoma culture supernatant, HRP anti-mouse IgG
Description: (§1) (9) After removal of the pins of PepSet from the plate, 50 μl of 2N H_2SO_4 was added to the wells to quench the reaction.
(§2) Thus, it has been shown that the anti-Fas ligand antibody produced by NOK1 and NOK4 hybridomas recognize the region, […]-[…] (SEQ ID NO:139), of Fas ligand, whereas the anti-Fas ligand antibody of NOK2 hybridoma recognizes the region, […]-[…] (SEQ ID NO:140), of Fas ligand.

[2] = molecular target: T2, Fas ligand peptide VMMEGKMMSYCTTGQ …; test: as above
Description: as §1, §2

[3] = molecular target: T3, Fas ligand peptide YPQDLVMMEGKMMSY …; test: as above
Description: as §1, §2

[4] = molecular target: T4, soluble Fas ligand molecule (human Fas …); test: cell-based or functional assay

binding result [1]	binding result [2]	binding result [3]	Binder	apoptosis inhibition: viable rate of Fas-WR19L target cells with soluble Fas ligand, Alamar Blue fluorescence, 17 h [4]
binds	binds	binds	NOK2 antibody (mouse anti-Fas ligand monoclonal antibody of hybridoma NOK2, FERM BP-5045) (antibody, V domains shown, Mouse IgG, purified on protein G; kappa light chain; Those are derived from the cloned PCR product and may hold leader or primer residues; also called mouse NOK2 immunoglobulin; NOK2 immunoglobulin) VH: QVHLQQSGAELVRPGTSVKMSCKAAGYTFTNYWIGWVKQRPGHGLEWIGYLYPGGLYTNYNEKFKGKATLTADTSSSTAYMQLSSLTSEDSAIYYCARYRDYDYAMDYWGQGTSVTVSS VL: DVVLTQTPLSLPVNIGDQASISCKSTKSLLNSDGFTYLGWCLQKPGQSPQLLIYLVSNRFSGVPDRFSGSGSGTDFTLKISRVEAEDLGVYYCFQSNYLPLTFGSGTKLEIKR	
			RNOK201 (humanized NOK2 antibody, RNOK2VHver11 with RNOK2VLver1) (antibody, V domains shown) VH: QVQLVQSGAEVKKPGASVKVSCKASGYTFTNYWIGWVKQAPGQGLEWIGYLYPGGLYTNYNEKFKGKATMTADTSTNTAYMELSSLRSEDTAVYYCARYRDYDYAMDYWGQGTLVTVSS VL: DVVMTQTPSSLSASVGDRASISCKSTKSLLNSDGFTYLGWCQQKPGQSPQLLIYLVSNRFSGVPDRFSGSGSGTDFTLKISSLQPEDIATYYCFQSNYLPLTFGQGTKVEIKR	≥ 90%
			RNOK202 (humanized NOK2 antibody, RNOK2VHver11 with RNOK2VLver21) (antibody, V domains shown) VH: QVQLVQSGAEVKKPGASVKVSCKASGYTFTNYWIGWVKQAPGQGLEWIGYLYPGGLYTNYNEKFKGKATMTADTSTNTAYMELSSLRSEDTAVYYCARYRDYDYAMDYWGQGTLVTVSS VL: DVVMTQTPLSLPVTPGEPASISCKSTKSLLNSDGFTYLGWCLQKPGQSPQLLIYLVSNRFSGVPDRFSGSGSGTDFTLKISRVEAEDVGVYYCFQSNYLPLTFGQGTKLEIKR	≥ 90%
			RNOK203 (humanized NOK2 antibody, RNOK2VHver11 with RNOK2VLver22) (antibody, V domains shown) VH: QVQLVQSGAEVKKPGASVKVSCKASGYTFTNYWIGWVKQAPGQGLEWIGYLYPGGLYTNYNEKFKGKATMTADTSTNTAYMELSSLRSEDTAVYYCARYRDYDYAMDYWGQGTLVTVSS VL: DVVMTQTPLSLPVTLGQPASISCKSTKSLLNSDGFTYLGWCLQKPGQSPQLLIYLVSNRFSGVPDRFSGSGSGTDFTLKISRVEAEDVGVYYCFQSNYLPLTFGQGTKLEIKR	≥ 90%
